Experimental data reported in patent US12691186B2, “B7-H3 miniproteins, conjugates, and uses thereof” (priority 2023, dated 2026).
Primed or numbered codes have the meaning given here. [ ]: non-standard residue; d: D form. The star is where a group is joined. Biotin = O=C1N[C@H]2[C@H](CS[C@H]2CCCCC(=O)*)N1; Lys(Me2) = CN(C)CCCC[C@H](N)C(=O)O; PEG4′ = not defined here

Assays:
[1] = tested on: >6,500 different human proteins; assay: Off-target binding, cell microarray platform (Retrogenix Assay) in HEK293 cells; settings: biotin-labeled molecules
Description: To evaluate potential off-target binding, eight biotin-labeled molecules were tested in a cell microarray platform (Charles River Lab, Retrogenix Assay) having >6,500 different human proteins spanning diverse functions and subcellular locations.
Initially, two pools of molecules were tested. Pool #1 consisted of C298, C300, C302, C304, and pool #2 consisted of C306, C308, C310, and C312 at 2 μg/mL for each molecule. To perform this assay, HEK293 cells were plated on a dish and localized spots of cells were transiently over-expressed with a cDNA encoding for one of the >6,500 targets. Included in this library were two isoforms of CD276 (B7-H3) and B7-H3 related proteins (B7-1, B7-2, B7-H1/PD-L1, and B7-H2). The molecule pools were incubated on the fixed, over-expressing cell microarrays (n=2 per protein), and binding was visualized using Alexa Fluor 647 streptavidin fluorescence. All transfection efficiencies exceeded minimum thresholds for the microarray expression targets. Preliminary interactions identified from pooled results were re-spotted in duplicates, and each of the eight compounds were tested individually (n=2) at 2 μg/mL and/or in dose response against these targets as described above to validate the interactions.
All positive control interactions were strong and passed quality control. Specific interactions observed (median SNR≥1) confirmed on-target B7-H3 binding in two different isoforms for each of the eight test molecules. These interactions with the primary target occurred after fixation and in live cells (absence of fixation). No significant additional interactions were confirmed for any test molecules outside of B7-H3, indicating high specificity for the primary target (data not shown).

[2] = tested on: opossum kidney proximal tubule cells; assay: OK-PTC uptake assay of miniprotein conjugates in presence of scaffold A decoys; type: cell-based; settings: compound 20 μM; for % Uptake reduction in the presence of a decoy C118: 20-fold molar excess of decoy C118; for % Uptake reduction in the presence of a decoy C119: 20-fold molar excess of decoy C119
Description: This Example describes reduction of uptake of exemplary truncated and constrained B7-H3 miniprotein conjugates (C272, C308, C234, C394, C250, and C228) when combined with exemplary scaffold A decoys (C118, C119 and C120) as compared to no decoy. Uptake of compounds was evaluated in opossum kidney proximal tubule cells (as described in Example 5). Here, cells were treated with a compound in the presence or absence of a 20-fold molar excess of exemplary scaffold A decoys, C118, C119, and C120. Results depicting uptake of six exemplary B7-H3-targeting compounds, C272, C308, C234, C394, C250, and C228, in OK-PTC cells in the presence and absence of exemplary decoys C118, C119, and C120 (scaffold A decoys) are shown in Table 13. The B7-H3-targeting compounds were used at 20 μM and the decoys used at a 20-fold (with C272, C308, C234, C394, and C250) and 10-fold (with C228) molar excess.

[3] = In vitro metabolic stability, kidney brush border membrane preparations (KBBM); type: in vitro ADME; parameters: unit not given here; settings: mouse kidney brush border membrane preparation, 37° C.
Description: (§1) Exemplary miniprotein conjugates were spiked into biological matrices at initial concentration between 1-2 μM. Tested matrices were varied by species (mouse, rat, human) and type (plasma, serum, and kidney brush border membrane preparations tested each from 0.625-100 μg/mL protein content). Tested conditions were incubated with TAs at 37° C. for 4 hours. At collection points of 0, 15, 30, 60, 120, 240 minutes, 50 μL of each condition were quenched by organic solvent (methanol or acetonitrile) or the addition of 4% phosphoric acid solution. Fractions of each quenched timepoint were subsequently assayed for parent TA concentration by high resolution LC-MS. Percent-parent-remaining-time plots were constructed from the ratio of each given time collection to the time-zero parent TA. Percent-parent-remaining in mouse serum and plasma for exemplary miniproteins are recorded in Table 8.

[4] = In vitro metabolic stability, plasma; type: in vitro ADME; parameters: unit not given here; settings: 37° C.
Description: as §1

| Compound | In vitro Stability (mouse) - KBBM [3] | In vitro Stability (mouse) - Plasma [4] | other results |
| --- | --- | --- | --- |
| CC[C@H](C)[C@@H]1NC(=O)[C@H](Cc2ccccc2)NC(=O)[C@H](C)NC(=O)[C@H](CCCCN(C)C)NC(=O)[C@H]([C@@H](C)CC)NC(=O)[C@H](CCC(N)=O)NC(=O)[C@H](C)NC(=O)[C@H](Cc2ccc(O)cc2)NC(=O)[C@H]([C@@H](C)O)NC(=O)[C@H](CC(C)C)NC(=O)[C@@H]2CSSC[C@@H](C(=O)N[C@@H](CO)C(N)=O)NC(=O)[C@H](CC(C)C)NC(=O)[C@H](CCC(=O)O)NC(=O)[C@H](CCCCN)NC(=O)[C@H](C)NC(=O)[C@H](CCC(=O)O)NC(=O)[C@H](CO)NC(=O)[C@H](CC(C)C)NC(=O)[C@H]([C@@H](C)CC)NC(=O)[C@H](CCC(=O)O)NC(=O)[C@H](C)NC(=O)[C@H](CO)NC(=O)[C@H](CCC(N)=O)NC(=O)[C@H](CSSC[C@H](NC(=O)CCOCCOCCOCCOCCNC(=O)CCCC[C@@H]3SC[C@@H]4NC(=O)N[C@@H]43)C(=O)N[C@@H](C)C(=O)N[C@@H](CCCNC(=N)N)C(=O)N[C@@H](CCC(=O)O)C(=O)N[C@@H](CCCCN)C(=O)N[C@@H]([C@@H](C)CC)C(=O)N[C@@H](C)C(=O)N[C@@H](C)C(=O)N[C@@H](CC(C)C)C(=O)N[C@@H](CO)C(=O)N[C@@H](CCC(=O)O)C(=O)N[C@@H]([C@@H](C)CC)C(=O)N[C@@H]([C@@H](C)CC)C(=O)N[C@@H](Cc3c[nH]c4ccccc34)C(=O)N[C@@H](CC(C)C)C(=O)N3CCC[C@H]3C(=O)N2)NC(=O)[C@@H]2CCCN2C(=O)[C@H](CC(=O)O)NC(=O)[C@H](CC(=O)O)NC(=O)[C@H](CC(N)=O)NC(=O)[C@H](CC(C)C)NC(=O)[C@H](C)NC(=O)[C@H](C)NC1=O [Compound C300] |  |  | background binding to untransfected HEK293 cells [1]: low-background binding |
| C250 ({Biotin-PEG4′}-CAKEKIAALSEIIWLPCLTYAQI[Lys(Me2)]AFIAALNDDPCQSSEILSEAKELNDSQCP-NH2; disulfide (positions not given here); also: disulfide bonds between pairs of the four Cys, pairing not given here) [Compound C250] |  |  | % Uptake reduction in the presence of a decoy C118 [2]: 90.2%; % Uptake reduction in the presence of a decoy C119 [2]: 97.4% |
| C272 (CAREKIAALSEIIWLPCLTYAQIXAFIAALNDDPCQSAEILSEAKELCS; Biotin-PEG4 N-term, dimethyllysine, C-amide; SITE 24 dimethyllysine) [Compound C272] |  |  | % Uptake reduction in the presence of a decoy C118 [2]: 95.6%; % Uptake reduction in the presence of a decoy C119 [2]: 98.8%; % Uptake reduction in the presence of a decoy C120 ([2]; 20-fold molar excess of decoy C120): 97.5% |
| C303 (CAREKIAALSEIIWLPCLTYAQIXAFIAALNDDPCQSANILSEAXELCS; DOTA-PEG4 N-term, methyllysines, C-amide; SITE 24 monomethyllysine; SITE 45 monomethyllysine) [Compound C303] | >12 | >12 |  |
| C305 (CAXEKIAALSEIIWLPCLTYAQIXAFIAALNDDPCQSSEILSEAXELCS; DOTA-PEG4 N-term, methylated lysines, C-amide; SITE 3 trimethyllysine; SITE 24 monomethyllysine; SITE 45 monomethyllysine) [Compound C305] | >12 | >12 |  |
| C307 (CAXEKIAALSEIIWLPCLTYAQIXAFIXALNDDPCQSSEILSEAXELCS; DOTA-PEG4 N-term, methylated lysines, C-amide; SITE 3 trimethyllysine; SITE 24 monomethyllysine; SITE 28 monomethyllysine; SITE 45 monomethyllysine) [Compound C307] | >12 | >12 |  |
| C311 (CAXEKIAALSEIIWLPCLNYAQIXAFIAALNDDPCQSSEILSEAXELCS; DOTA-PEG4 N-term, methylated lysines, C-amide; SITE 3 trimethyllysine; SITE 24 monomethyllysine; SITE 45 monomethyllysine) [Compound C311] | >12 | >12 |  |
| C313 (CAXEKIAALSEIIWLPCLTYAQIXAFIAALNDDPCNSSEILSEAXELCS; DOTA-PEG4 N-term, methylated lysines, C-amide; SITE 3 trimethyllysine; SITE 24 monomethyllysine; SITE 45 monomethyllysine) [Compound C313] | >12 | >12 |  |
| C317 (CAXEKIAALSEIIWLPCLTYAQIXAFIARLNDDPCQSAEILSEAXELCS; DOTA-PEG4 N-term, methylarginine, methyllysines, C-amide; SITE 3 Rme; SITE 24 monomethyllysine; SITE 45 monomethyllysine) [Compound C317] |  | >12 |  |
| C319 (CAXEKIAALSEIIWLPCLTYAQIXAFIAXLNXDPCQSSEILSEAXELCS; DOTA-PEG4 N-term, methyllysines, citrulline, C-amide; SITE 3 trimethyllysine; SITE 24 dimethyllysine; SITE 29 monomethyllysine; SITE 32 citrulline; SITE 45 monomethyllysine) [Compound C319] | >12 | >12 |  |
| C349 (CAREKIAALSEIIWLPCLTYAQIXAFIAALNDDPCQSAEILSEAQELCS; DOTA-PEG4, methyl-Lys, C-terminal amide; SITE 24 monomethyllysine) [Compound C349] | >12 | >12 |  |
| C354 (CAREKIAALSEIIWLPCLTYAQIXAFIAALNDDPCQSSEILSEAXELCS; not fully specified; DOTA-PEG4, methyl-Lys, C-terminal amide; SITE 24 monomethyllysine; SITE 45 monomethyllysine) [Compound C354] | >12 | >12 |  |
| C467 (CAREKINALGEIIWLPCLTYDQIXAFIAALNDDPCQSSEILSEAXELCS; not fully specified; DOTA-PEG4, methyl-Lys, C-terminal amide; SITE 24 monomethyllysine; SITE 45 monomethyllysine) [Compound C467] | >12 | >12 |  |
| C493 (CAREKINALGEIIWLPCLTYDQIXAFIAXLNDDPCQSSEILSEAXELCS; not fully specified; DOTA-PEG4, methyl-Lys, C-terminal amide; SITE 24 monomethyllysine; SITE 29 monomethyllysine; SITE 45 monomethyllysine) [Compound C493] | >12 | >12 |  |
